According to the supplement of paper PMC9112550, “Optimization of the antimicrobial peptide Bac7 by deep mutational scanning” (BMC Biology, 2022):

System: Escherichia coli TOP10
Assay: shrunken log2 fold change of peptide-encoding DNA abundance (4.5 h post-induction vs induction); higher = less antimicrobial activity (less host growth inhibition)
Settings: time post-induction: 4.5 h; library: site-saturation at positions 5, 18, 19, 20
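Also: peptides expressed intracellularly from a pBAD plasmid library in pooled LB shake-flask culture, induced with 0.3% L-arabinose, DNA abundance read by NGS, three biological replicates, DESeq2 with apeglm shrinkage.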

Sequence	shrunken log2 fold change
RRIRTRPPRLPRPRPRPDYMPRP	-0.687
RRIRIRPPRLPRPRPRPKFNPRP	-1.09
RRIRRRPPRLPRPRPRPVMFPRP	0.155
RRIRERPPRLPRPRPRPNQTPRP	-0.13
RRIRQRPPRLPRPRPRPEKSPRP	0.287
RRIRDRPPRLPRPRPRPLVFPRP	-0.0186
RRIRFRPPRLPRPRPRPSYNPRP	-1.04
RRIRMRPPRLPRPRPRPCARPRP	0.343
RRIRERPPRLPRPRPRPHLLPRP	0.0196
RRIRARPPRLPRPRPRPKVWPRP	0.766
RRIRGRPPRLPRPRPRPLRHPRP	1.34
RRIRDRPPRLPRPRPRPKGCPRP	0.0262
RRIRKRPPRLPRPRPRPQIGPRP	-0.0295
RRIRNRPPRLPRPRPRPFEAPRP	0.0104
RRIRRRPPRLPRPRPRPCKQPRP	-0.0474
RRIRCRPPRLPRPRPRPGYHPRP	-0.997
RRIRYRPPRLPRPRPRPQFDPRP	-0.0286
RRIRRRPPRLPRPRPRPHNSPRP	0.0175
RRIRVRPPRLPRPRPRPSRAPRP	0.152
RRIRPRPPRLPRPRPRPQHMPRP	-0.537
RRIRNRPPRLPRPRPRPHDQPRP	0.0402
RRIRLRPPRLPRPRPRPLMHPRP	0.0668
RRIRHRPPRLPRPRPRPKLLPRP	-0.0097
RRIRNRPPRLPRPRPRPRGPPRP	0.893
RRIRYRPPRLPRPRPRPHEIPRP	-0.194

Sequence	shrunken log2 fold change
RRIRHRPPRLPRPRPRPGYIPRP	-0.176
RRIRNRPPRLPRPRPRPVSKPRP	0.124
RRIRARPPRLPRPRPRPRYCPRP	-0.15
RRIRLRPPRLPRPRPRPLCYPRP	-0.15
RRIRCRPPRLPRPRPRPWQTPRP	-0.0433
RRIRFRPPRLPRPRPRPTDNPRP	-0.205
RRIRFRPPRLPRPRPRPVGEPRP	0.29
RRIRNRPPRLPRPRPRPRGHPRP	0.347
RRIRLRPPRLPRPRPRPEPGPRP	0.35
RRIRYRPPRLPRPRPRPFQWPRP	0.0299
RRIRWRPPRLPRPRPRPWWNPRP	-0.0562
RRIRSRPPRLPRPRPRPVVFPRP	0.11
RRIRDRPPRLPRPRPRPTIAPRP	0.521
RRIRNRPPRLPRPRPRPLYWPRP	-0.437
RRIRARPPRLPRPRPRPQFDPRP	0.545
RRIRSRPPRLPRPRPRPYKTPRP	-0.0144
RRIRKRPPRLPRPRPRPNSNPRP	-0.115
RRIRSRPPRLPRPRPRPYMLPRP	-0.981
RRIRCRPPRLPRPRPRPQHIPRP	-0.868
RRIRKRPPRLPRPRPRPTMPPRP	0.282
RRIRKRPPRLPRPRPRPHLYPRP	0.0535
RRIRHRPPRLPRPRPRPMQGPRP	-0.0154
RRIRSRPPRLPRPRPRPLVAPRP	0.27
RRIRDRPPRLPRPRPRPLGYPRP	0.0343
RRIRVRPPRLPRPRPRPSPNPRP	-0.271

Sequence	shrunken log2 fold change
RRIRFRPPRLPRPRPRPRYWPRP	-0.0206
RRIRSRPPRLPRPRPRPFPYPRP	-0.115
RRIRHRPPRLPRPRPRPWTPPRP	-0.502
RRIRDRPPRLPRPRPRPEWMPRP	0.764
RRIRQRPPRLPRPRPRPTHCPRP	0.897
RRIRNRPPRLPRPRPRPLQEPRP	-0.0474
RRIRNRPPRLPRPRPRPLVMPRP	-0.126
RRIRMRPPRLPRPRPRPWTQPRP	-0.0562
RRIRIRPPRLPRPRPRPKYQPRP	-0.615
RRIRRRPPRLPRPRPRPFKCPRP	-0.135
RRIRCRPPRLPRPRPRPEYCPRP	-0.0902
RRIRLRPPRLPRPRPRPKENPRP	0.00493
RRIRARPPRLPRPRPRPWQTPRP	0.0127
RRIRTRPPRLPRPRPRPCRVPRP	-0.346
RRIRGRPPRLPRPRPRPTNLPRP	-0.0172
RRIRHRPPRLPRPRPRPYIWPRP	-0.431
RRIRVRPPRLPRPRPRPNREPRP	-0.0873
RRIRRRPPRLPRPRPRPPNLPRP	0.593
RRIRVRPPRLPRPRPRPVRTPRP	0.103
RRIRVRPPRLPRPRPRPDSCPRP	-0.115
RRIRWRPPRLPRPRPRPSTTPRP	0.221
RRIRFRPPRLPRPRPRPASYPRP	-0.218
RRIRARPPRLPRPRPRPAKKPRP	-0.0777
RRIRRRPPRLPRPRPRPYGPPRP	-0.64
RRIRYRPPRLPRPRPRPPLWPRP	0.277
